Experimental data as given in PMC9482650, “Quantitative fragmentomics allow affinity mapping of interactomes” (Nature Communications, 2022).

Assays:
Test in all cases: holdup assay
Parameters in all cases: key: below the threshold = too weak to quantify, mostly under pKd 3.1 to 4
[1] = biological target: T1, PTPN13_1, Q12923
T1 sequence (Q12923 1088-1188, limits assumed, looked up): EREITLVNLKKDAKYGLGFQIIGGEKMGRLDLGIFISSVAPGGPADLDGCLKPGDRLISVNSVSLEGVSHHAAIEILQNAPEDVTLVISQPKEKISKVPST

[2] = biological target: SNX27, Q96L92
[3] = biological target: T2, APBA3_1, O96018
T2 sequence (O96018 389-490, limits assumed, looked up): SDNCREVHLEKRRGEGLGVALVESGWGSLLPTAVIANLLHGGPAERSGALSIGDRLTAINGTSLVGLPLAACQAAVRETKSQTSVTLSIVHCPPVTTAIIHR

[4] = biological target: T3, LRRC7, Q96NW7
T3 sequence (Q96NW7 1440-1537, limits assumed, looked up): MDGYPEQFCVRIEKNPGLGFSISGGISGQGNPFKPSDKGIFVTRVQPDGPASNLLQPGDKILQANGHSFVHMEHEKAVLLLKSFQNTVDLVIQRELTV

[5] = biological target: T4, ARHGEF11, O15085
T4 sequence (O15085 42-136, limits assumed, looked up): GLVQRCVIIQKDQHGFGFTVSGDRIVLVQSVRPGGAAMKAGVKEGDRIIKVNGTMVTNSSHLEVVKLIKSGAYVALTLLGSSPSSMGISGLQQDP

[6] = biological target: HTRA2, O43464
Sequence of HTRA2, O43464 (O43464 355-458): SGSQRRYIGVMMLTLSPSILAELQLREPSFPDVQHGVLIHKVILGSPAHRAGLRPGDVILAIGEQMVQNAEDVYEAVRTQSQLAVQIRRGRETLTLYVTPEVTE

[7] = biological target: IL16_4, Q14005
Sequence of IL16_4, Q14005 (Q14005 1229-1329): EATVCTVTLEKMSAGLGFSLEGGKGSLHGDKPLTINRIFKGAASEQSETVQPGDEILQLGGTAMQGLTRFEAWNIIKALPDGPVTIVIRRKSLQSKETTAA

[8] = biological target: T5, DLG3_1, Q92796
T5 sequence (Q92796 125-227, limits assumed, looked up): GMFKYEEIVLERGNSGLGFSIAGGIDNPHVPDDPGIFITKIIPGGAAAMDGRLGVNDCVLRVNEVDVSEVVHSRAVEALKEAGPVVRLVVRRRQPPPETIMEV

[9] = biological target: PARD3_3, Q8TEW0
Sequence of PARD3_3, Q8TEW0 (Q8TEW0 582-685): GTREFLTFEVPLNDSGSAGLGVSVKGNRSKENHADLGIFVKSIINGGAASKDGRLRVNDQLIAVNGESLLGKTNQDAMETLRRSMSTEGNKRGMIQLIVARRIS

[10] = biological target: T6, SNTA1, Q13424
T6 sequence (Q13424 82-180, limits assumed, looked up): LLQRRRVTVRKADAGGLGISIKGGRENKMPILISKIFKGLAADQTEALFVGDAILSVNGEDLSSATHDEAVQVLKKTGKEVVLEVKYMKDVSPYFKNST

[11] = biological target: T7, MPP6, Q9NZW5
T7 sequence (Q9NZW5 125-219, limits assumed, looked up): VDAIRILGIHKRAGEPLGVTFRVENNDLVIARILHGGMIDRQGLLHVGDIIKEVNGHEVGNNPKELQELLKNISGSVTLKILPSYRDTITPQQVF

[12] = biological target: T8, RAPGEF6, Q8TEU7
T8 sequence (Q8TEU7 525-625, limits assumed, looked up): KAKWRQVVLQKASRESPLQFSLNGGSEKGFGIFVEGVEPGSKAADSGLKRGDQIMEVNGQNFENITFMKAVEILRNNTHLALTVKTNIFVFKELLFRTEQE

[13] = biological target: T9, DVL3, Q92997
T9 sequence (Q92997 244-331, limits assumed, looked up): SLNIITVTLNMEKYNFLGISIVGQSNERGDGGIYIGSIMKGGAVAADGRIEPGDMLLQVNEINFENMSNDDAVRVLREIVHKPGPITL

[14] = biological target: GRIP2_6, Q9C0E4
Sequence of GRIP2_6, Q9C0E4 (Q9C0E4 648-740): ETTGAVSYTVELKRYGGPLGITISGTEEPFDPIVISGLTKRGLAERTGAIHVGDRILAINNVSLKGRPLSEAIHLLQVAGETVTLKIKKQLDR

[15] = biological target: AHNAK1, Q09666
Sequence of AHNAK1, Q09666 (Q09666 4-100): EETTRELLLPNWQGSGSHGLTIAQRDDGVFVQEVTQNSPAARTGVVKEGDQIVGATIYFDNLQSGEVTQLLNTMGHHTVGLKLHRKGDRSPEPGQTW

[16] = biological target: FRMPD2_3, Q68DX3
Sequence of FRMPD2_3, Q68DX3 (Q68DX3 1073-1166): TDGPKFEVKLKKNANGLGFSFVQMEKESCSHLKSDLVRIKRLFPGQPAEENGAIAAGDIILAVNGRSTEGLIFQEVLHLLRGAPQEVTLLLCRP

[17] = biological target: DLG5_1, Q8TDM6
Sequence of DLG5_1, Q8TDM6 (Q8TDM6 617-713): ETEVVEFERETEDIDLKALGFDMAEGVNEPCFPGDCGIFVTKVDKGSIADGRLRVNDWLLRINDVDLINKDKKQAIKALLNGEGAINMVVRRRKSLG

[18] = biological target: FRMPD2_1, Q68DX3
Sequence of FRMPD2_1, Q68DX3 (Q68DX3 770-861): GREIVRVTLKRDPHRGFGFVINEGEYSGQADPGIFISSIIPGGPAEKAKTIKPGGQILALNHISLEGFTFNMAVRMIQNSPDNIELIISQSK

[19] = biological target: T10, MPP7, Q5T2T1
T10 sequence (Q5T2T1 134-230, limits assumed, looked up): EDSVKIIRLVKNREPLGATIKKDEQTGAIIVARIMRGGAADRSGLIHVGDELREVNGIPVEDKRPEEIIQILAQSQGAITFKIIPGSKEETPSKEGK

[20] = biological target: DLG2_3, Q15700
[21] = biological target: T11, SNTB1, Q13884
T11 sequence (Q13884 107-205, limits assumed, looked up): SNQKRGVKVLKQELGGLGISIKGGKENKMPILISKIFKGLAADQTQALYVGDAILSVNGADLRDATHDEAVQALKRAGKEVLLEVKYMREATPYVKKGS

[22] = biological target: MAGI2_6, Q86UL8
Sequence of MAGI2_6, Q86UL8 (Q86UL8 1141-1229): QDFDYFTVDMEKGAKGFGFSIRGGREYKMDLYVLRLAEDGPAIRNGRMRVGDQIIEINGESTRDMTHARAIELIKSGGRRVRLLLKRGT

[23] = biological target: LAP2, Q96RT1
Sequence of LAP2, Q96RT1 (Q96RT1 other isoform, or with tags, fused parts or gaps): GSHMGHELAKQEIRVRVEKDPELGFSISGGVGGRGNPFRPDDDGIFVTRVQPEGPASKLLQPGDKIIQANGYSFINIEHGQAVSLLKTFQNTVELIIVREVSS

[24] = biological target: T12, APBA2_1, Q99767
T12 sequence (Q99767 563-664, limits assumed, looked up): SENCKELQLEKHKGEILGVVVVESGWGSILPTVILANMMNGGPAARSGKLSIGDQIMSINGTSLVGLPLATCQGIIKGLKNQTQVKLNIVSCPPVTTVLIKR

[25] = biological target: T13, PDZD2_2, O15018
T13 sequence (O15018 329-429, limits assumed, looked up): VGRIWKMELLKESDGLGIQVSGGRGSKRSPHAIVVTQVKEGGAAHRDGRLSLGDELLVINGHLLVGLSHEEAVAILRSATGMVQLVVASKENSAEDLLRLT

[26] = plain residues with an end cap or a label only (N-terminal biotin on a linker: ttds)
[27] = plain residues with an end cap or a label only (N-terminal biotin on a linker: ahx)

EVVHTPETSV [SLC16A3, O15427]
pKd [1, 26]: below the threshold
pKd [2, 26]: 5.15
pKd [3, 26]: below the threshold
pKd [4, 26]: below the threshold
pKd [5, 26]: 3.76
pKd [6, 26]: below the threshold
pKd [7, 26]: below the threshold
pKd [8, 26]: below the threshold
pKd [9, 26]: below the threshold
pKd [10, 26]: 4.69
pKd [11, 26]: below the threshold
pKd [12, 26]: below the threshold
pKd [13, 26]: below the threshold
pKd [14, 26]: below the threshold
pKd [15, 26]: below the threshold
pKd [16, 26]: below the threshold
pKd [17, 26]: below the threshold
pKd [18, 26]: below the threshold
pKd [19, 26]: below the threshold
pKd [20, 26]: 4.35
pKd [21, 26]: 4.76
pKd [22, 26]: 4.14
pKd [23, 26]: 3.81
pKd [24, 26]: below the threshold
pKd [25, 26]: 4.26

RHTTSTETAV [HPV30-E6, P36809]
pKd [1, 26]: below the threshold
pKd [2, 26]: 5.64
pKd [3, 26]: below the threshold
pKd [4, 26]: below the threshold
pKd [5, 26]: 4.35
pKd [6, 26]: below the threshold
pKd [7, 26]: below the threshold
pKd [8, 26]: 4.45
pKd [9, 26]: below the threshold
pKd [10, 26]: 4.72
pKd [11, 26]: below the threshold
pKd [12, 26]: below the threshold
pKd [13, 26]: below the threshold
pKd [14, 26]: 3.77
pKd [15, 26]: 3.72
pKd [16, 26]: 3.87
pKd [17, 26]: below the threshold
pKd [18, 26]: 4.14
pKd [19, 26]: below the threshold
pKd [20, 26]: 4.79
pKd [21, 26]: 5.1
pKd [22, 26]: 4.19
pKd [23, 26]: 4.46
pKd [24, 26]: below the threshold
pKd [25, 26]: 4.42

RLPKIKETTV [FRMPD4, Q14CM0]
pKd [1, 26]: below the threshold
pKd [2, 26]: 5.73
pKd [3, 26]: below the threshold
pKd [4, 26]: 3.58
pKd [5, 26]: 3.71
pKd [6, 26]: below the threshold
pKd [7, 26]: below the threshold
pKd [8, 26]: 4.51
pKd [9, 26]: below the threshold
pKd [10, 26]: 6.66
pKd [11, 26]: below the threshold
pKd [12, 26]: below the threshold
pKd [13, 26]: 3.43
pKd [14, 26]: 3.39
pKd [15, 26]: below the threshold
pKd [16, 26]: below the threshold
pKd [17, 26]: below the threshold
pKd [18, 26]: below the threshold
pKd [19, 26]: below the threshold
pKd [20, 26]: 5.15
pKd [21, 26]: 5.17
pKd [22, 26]: 3.98
pKd [23, 26]: 3.87
pKd [24, 26]: below the threshold
pKd [25, 26]: 4.05

RLQRRRETQV [HPV18-E6, P06463]
pKd [1, 26]: below the threshold
pKd [2, 26]: 4.55
pKd [3, 26]: below the threshold
pKd [4, 26]: 3.14
pKd [5, 26]: 3.66
pKd [6, 26]: below the threshold
pKd [7, 26]: below the threshold
pKd [8, 26]: 4.34
pKd [9, 26]: below the threshold
pKd [10, 26]: 4.7
pKd [11, 26]: below the threshold
pKd [12, 26]: below the threshold
pKd [13, 26]: below the threshold
pKd [14, 26]: below the threshold
pKd [15, 26]: below the threshold
pKd [16, 26]: below the threshold
pKd [17, 26]: below the threshold
pKd [18, 26]: 4.1
pKd [19, 26]: below the threshold
pKd [20, 26]: 5.06
pKd [21, 26]: 5.23
pKd [22, 26]: below the threshold
pKd [23, 26]: 3.61
pKd [24, 26]: below the threshold
pKd [25, 26]: 3.36

SSLQSLETSV [ATP2B4, P23634]
pKd [1, 26]: 3.5
pKd [2, 26]: 5.7
pKd [3, 26]: below the threshold
pKd [4, 26]: below the threshold
pKd [5, 26]: 4.43
pKd [6, 26]: below the threshold
pKd [7, 26]: below the threshold
pKd [8, 26]: 4.35
pKd [9, 26]: 3.87
pKd [10, 26]: 4.91
pKd [11, 26]: 3.56
pKd [12, 26]: 3.72
pKd [13, 26]: 3.6
pKd [14, 26]: below the threshold
pKd [15, 26]: below the threshold
pKd [16, 26]: below the threshold
pKd [17, 26]: below the threshold
pKd [18, 26]: 4.17
pKd [19, 26]: below the threshold
pKd [20, 26]: 4.88
pKd [21, 26]: 5.59
pKd [22, 26]: 4.55
pKd [23, 26]: 4.66
pKd [24, 26]: below the threshold
pKd [25, 26]: 4.56

GYDWGPATDL [TJP3, O95049]
pKd [1, 27]: below the threshold
pKd [2, 27]: 3.64
pKd [3, 27]: below the threshold
pKd [4, 27]: 3.7
pKd [5, 27]: 4.6
pKd [6, 27]: below the threshold
pKd [7, 27]: below the threshold
pKd [8, 27]: 3.48
pKd [9, 27]: 3.66
pKd [10, 27]: 4.07
pKd [11, 27]: below the threshold
pKd [12, 27]: below the threshold
pKd [13, 27]: below the threshold
pKd [14, 27]: below the threshold
pKd [15, 27]: below the threshold
pKd [16, 27]: below the threshold
pKd [17, 27]: below the threshold
pKd [18, 27]: below the threshold
pKd [19, 27]: below the threshold
pKd [20, 27]: 3.52
pKd [21, 27]: 4.08
pKd [22, 27]: 5.24
pKd [23, 27]: 3.73
pKd [24, 27]: below the threshold
pKd [25, 27]: 4.46
